From patent US20130251703A1 (Novartis, published 2013)
Where a chain is given by its changes, count along the chain named.

B1: MOR13657 (antibody, human IgG1, lambda, V domains shown)
VH: QVQLVQSGAEVKKPGASVKVSCKASGYTFTSYDIHWVRQAPGQGLEWMGRIDPYSGNTNYAQKFQGRVTMTRDTSISTAYMELSRLRSEDTAVYYCARGSFYTRDSYFDVWGQGTLVTVSS
VL: DIALTQPASVSGSPGQSITISCTGTSSDVGTYNQVSWYQQHPGKAPKLMIYGVSKRPSGVSNRFSGSKSGNTASLTISGLQAEDEADYYCSARDGWSEYVFGGGTKLTVLG
notes: Tested as IgG
B2: MOR13658 (antibody, human IgG1, lambda, V domains shown)
VH: B1 VH
VL: B1 VL with S91A, A92S, R93A, G95H, W96S, S97Y, E98H, Y99T
notes: Tested as IgG
B3: MOR12920 (antibody, human IgG1, lambda, V domains shown)
VH: B1 VH with S31G, D33Y, I34M, R50D, D52E, S55H, N57K, T58P, N59L
VL: B1 VL with K44N, A92S, G95L, W96I, S97G, E98H
B4: MOR12922 (antibody, human IgG1, lambda, V domains shown)
VH: B1 VH with S31G, D33Y, I34M, R50V, N57W, N59E
VL: B1 VL with A92S, G95L, W96I, S97G, E98H
B5: MOR13665 (antibody, human IgG1, lambda, V domains shown)
VH: B1 VH
VL: DIALTQPASVSGSPGQSITISCTGTSSDVGTYNQVSWYQQHPGKAPKLMIYGVSKRPSGVSNRFSGSKSGNTASLTISGLQAEDEADYYCQSAAIATSVFGGGTKLTVLG
B6: MOR13667 (antibody, human IgG1, lambda, V domains shown)
VH: B1 VH
VL: B1 VL with S91Q, R93W, G95Y, W96R, S97Q, E98T, Y99I
B7: MOR13660 (antibody, human IgG1, lambda, V domains shown)
VH: B1 VH
VL: B5 VL with Q91A, S92V, A93R, A94G, I95S, A96Q, S98L
B8: MOR13663 (antibody, human IgG1, lambda, V domains shown)
VH: B1 VH
VL: B1 VL with A92V, R93W, D94T, G95S, W96I, S97K, E98V, Y99F
B9: MOR13661 (antibody, human IgG1, lambda, V domains shown)
VH: B1 VH
VL: B5 VL with Q91G, A93R, A94D, I95S, A96W, T97A, S98H
B10: MOR13664 (antibody, human IgG1, lambda, V domains shown)
VH: B1 VH
VL: B1 VL with R93Y, G95A, W96S, S97T, E98Q, Y99V
B11: MOR13669 (antibody, human IgG1, lambda, V domains shown)
VH: B1 VH
VL: DIALTQPASVSGSPGQSITISCTGTSSDVGTYNQVSWYQQHPGKAPKLMIYGVSKRPSGVSNRFSGSKSGNTASLTISGLQAEDEADYYCSTATAMTVSLVFGGGTKLTVLG
B12: MOR13656 (antibody, human IgG1, lambda, V domains shown)
VH: B1 VH
VL: B5 VL with Q91A, S92V, A93R, A94D, I95S, A96V, T97W, S98H
B13: MOR13659 (antibody, human IgG1, lambda, V domains shown)
VH: B1 VH
VL: B5 VL with Q91G, A93R, A94T, I95S, A96H, T97N, S98W
B14: MOR13662 (antibody, human IgG1, lambda, V domains shown)
VH: B1 VH
VL: B11 VL with S91Y, T92S, A93R, T94A, A95K, M96T, T97H, V98W, S99T, L100D
B15: MOR13670 (antibody, human IgG1, lambda, V domains shown)
VH: B1 VH
VL: B1 VL with S91Q, A92V, R93A, G95Q, W96G, S97W, E98H, Y99Q
B16: MOR13668 (antibody, human IgG1, lambda, V domains shown)
VH: B1 VH
VL: B1 VL with S91Q, A92V, R93W, G95S, W96D, S97Q, E98A, Y99M

biological target: T1, human HER3 endogenously expressed on human cancer cells (SK-Br-3, BT-474, MCF7) (human, UniProt P21860 20-1342); experiment: cell-based or functional assay

Row | BT-474 pAkt % inhibition | BT-474 pAkt IC50 | MCF7 pAkt % inhibition | MCF7 pAkt IC50 | SK-Br-3 pAkt % inhibition | SK-Br-3 pAkt IC50 | Binder
1 | 53% | 586 pM | 75% | 385 pM | 91% | 33 pM | B1
2 | 56% | 461 pM | 81% | 341 pM | 92% | 172 pM | B2

biological target: T1, human HER3 endogenously expressed on …; experiment: cell-based or functional assay; remark: another data set of the same source

Row | BT-474 proliferation % inhibition | BT-474 proliferation IC50 | SK-Br-3 proliferation % inhibition | SK-Br-3 proliferation IC50 | MCF7 proliferation % inhibition | MCF7 proliferation IC50 | Binder
3 | 30% | 473 pM | 39% | 179 pM | – | – | B1
4 | – | – | 32% | 2910 pM | 22% | 1920 pM | B3
5 | – | – | 36% | 709 pM | 27% | 467 pM | B4
6 | 34% | 423 pM | 42% | 191 pM | 49% | 174 pM | B2

biological target: T1, human HER3 endogenously expressed on …; experiment: cell-based or functional assay; remark: another data set of the same source

Row | BT474 pHER3 % inhibition | BT474 pHER3 IC50 | MCF7 pHER3 % inhibition | MCF7 pHER3 IC50 | SK-Br-3 pHER3 % inhibition | SK-Br-3 pHER3 IC50 | Binder
7 | 63% | 372 pM | 75% | 283 pM | 71% | 142 pM | B1
8 | – | – | 62% | 795 pM | 59% | 546 pM | B5
9 | – | – | 72% | 603 pM | 59% | 267 pM | B6
10 | – | – | 49% | 533 pM | 54% | 188 pM | B7
11 | – | – | 58% | 449 pM | 56% | 290 pM | B8
12 | – | – | 55% | 649 pM | 55% | 421 pM | B9
13 | – | – | 55% | 480 pM | 57% | 388 pM | B10
14 | 57% | 2020 pM | 66% | 3070 pM | 57% | 851 pM | B3
15 | – | – | 66% | – | 58% | 743 pM | B11
16 | – | – | 73% | 504 pM | 60% | 86 pM | B12
17 | – | – | 66% | 505 pM | 51% | 277 pM | B13
18 | – | – | 52% | 550 pM | 56% | 331 pM | B14
19 | 58% | 702 pM | 62% | 788 pM | 64% | 81 pM | B4
20 | – | – | 69% | 643 pM | 60% | 730 pM | B15
21 | – | – | 77% | 1640 pM | 58% | 657 pM | B16
22 | 67% | 571 pM | 83% | 459 pM | 74% | 347 pM | B2

biological target: T2, Hu HER3: CD33-[Human HER3, residues 20-640]-TAG (human, UniProt P21860 20-640); experiment: solution equilibrium titration (SET), IgG, ECL read-out
T2 construct: also called hu HER3-Tag; HER3-Tag; not shown: C-terminal TAG (e.g. FLAG TAG)

Row | Kd | Binder
23 | 87 pM | B1
24 | 27 pM | B2
